Experiment: soluble fraction after stress (log2 fold change); higher = more stays soluble; pooled small domains, quantitative proteomics
Settings: stress: 50 degC
Method in brief: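 Pooled custom libraries of small protein domains were each held under stress at 50°C. The read-out, high-throughput quantitative proteomics, tracked how much of each protein stayed soluble. This is reported as a base-two log fold change used to indicate aggregation propensity. Higher values mean more protein remains in solution.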

Sequence	soluble fraction (log2)
HMIEIKNLSFSYGKKKQSVFNDFSLTLDKGSVYGLLGKNGTGKSTLLYLMTGLLRPQAGQVLYKGVDVS	0.0827
HMIEKVNDYVVRFANVNGTGSASANNLFALAIYRMGVPVTPKNIFPSNIQGLPTWFEVRVSGSGYLARRG	0.01
HMIELDRTNLLGVFGPKSRPYALLMLSNGEMIKISIGDQFFGWRVYGIDEKSIQVQNGTKQEILRIP	-2.12
HMIENGILELKGKTGVAQTVLRPSGKVLIDDEIYDAVALTGYIEKADKVLVTKVEATQLYVEK	0.0576
HMIERLVVSPAAGVFTKKMSVENNTRIDVGHVLGHVGETEVRSPFAGILQNYIAVDGERLTAHQPIAWLRS	0.00717
HMIERVLRTEEHIEAFAGEEVEAKLFAPIDGKKTLRGILGGIEDGRVILTVGDTEYRIEHAKISRLTTVFD	-0.122
HMIESVMVGIKELLGDTIDQKYEKYIRLGGIPSDEVDEFNSVFSAYEKVNGNHNGKKKYDYVMNNLPIIPV	-0.26
HMIETIQVPRAFNDWHEQADKTKSVFEVYAEIEASENEKLIAWVRNNQNEFAKIWLGALIPELE	-1.39
HMIGHIGSAVMLNAKLRPRLPLLHVLALTQSLGERLSAAEAQPEVYRWSDPGQSRVIAEFEGGRLTRWRLE	-2.09
HMIGVIVDEVDPDSSLKSGDIITEVNREVILNIDDFVGLVEQIQKTGRSSLLLKILRDKKSLWVTIQFV	0.0885
HMIHQIPVNVQKIRQIIGINLNENDYLNYLAKLGFVIDEGLIIVPSFRSDVKTQNDLAEEIARV	-0.444
HMIINFDAIKLTTELNKYKRHKAIPNTFFDGTYTILDVRELYNDLTPKAQKIADELIEHYNVDVK	-1.88
HMIINLGELLKMLEVNKYQDAMDALDSLIEEGGSLEKIESLHEIRQHTHAMNFREAERLLSILIESEGA	-0.746
HMIISPKKLEYRQRIINALGDRKMSLNELSKAMGYKGITTKLSFTVDDMIKSGVIEKVMVGAYAKLHIP	-1.65
HMIIVMKRNATETQIDHVVRWVESIGYRAHRSNGTEQTVVKAVGGERGGEELKYLAALSGVEKVVPIR	-0.0291
HMIKDSKAAYKILGVDENATNEEIKKAYRQLVINHHPDKVSHLGEDIQRAANEKLKQINAAYDEIKKQRGF	0.237
HMIKEGDLVFIWNPKKGDSFLIKVQPGQSQGTHFGQIKHSEIMEHNYGEGIRTPKGQVYYLLRPTLGEFTR	-1.14
HMIKEVGYEKFMQMTEEEDIGRVEIDQEENQITFTDKDETAIYKTGMVDDPDLTERLYDAGAEFS	0.0297
HMIKIDESTLSEDELKIFEILKIEDKNIENIAIESKILPGKLLATLMNMEMKKIVVQYPGKVFGLNRKLK	-0.492
HMIKKAILPVAGLGTRFLPASKSIPKEMVTVVDRPAIEYVVREAVEAGIEQIILVTHSSKASIENYFDR	-0.187
HMIKKLDIEPIIKSVVDDFNNIYKLKRGITISYLNDGKNKYFINGIENRIEQIIANLLDNSISFSEDNKDV	0.0041
HMIKLSTNENTALRLVMERGLVTESELKGLFDNPVAVMESLISKMIETNTHWIHSERSENGEWVYAWQ	-0.456
HMIKNDIGKFIKLYRETHQWSQRELAEHLGVSQRNVSYYEKGERIPPADVLKKLSTLFDVPVDVLLGLK	-0.43
HMIKRDLAFSEFIAEVKAGQVREVTIKGNSISGNLNDGREFNTYAPNDPNLVKTLTDQGVLIRAIPLE	-0.0273
HMILNPQELGERIRKLRLKRNKTQSYFADMLYISSSYLALIESGKRVPNLDLLIHIAKFTDVTLDYLVFG	-1.22

Sequence	soluble fraction (log2)
HMILVLKPGAPEDLKNELIHDIEKMGLRVHVSVGEGTTIIGLIGDTSKISKYTFSSYEIVSNVLRVT	-0.0106
HMILYDDEYKGPRYRYGLHSRPLSPGAVPKGFIIHSDRPHPDFRHGTLDYPVKLPDDRAANFELIFIGEFD	-1.02
HMIMMTLGEKIRSIRKAKGMTQQELAEKLNTTKQTIGKYEKGIVTNLPLFRINELARALSTTPAYLTGW	-1.41
HMIMPSDATEAKLLGVLGNEPLHVDEIRNQAELPIEKVSAALALMELKGMVRQVGGMNYVAVR	0.117
HMIMQTTSDRINQRMRDLGLQHKDLVAATGASKGTVTNWINGVNNPTGKRLVQLAQALKTTSSWLLTGN	-0.12
HMINDPSALGQRAFVDELLWMAGYVPEKIEIYQTLPNNSRVYRVKLDSVNGGFIFIRWDKKKKEHYV	0.114
HMINEEELLKIENIKRKYPDSKAALMPVLYFFQEKYGFISDDSIKEISQLLNISEVDIKGVVSFYEMFHEK	-0.59
HMINEVVSLRDVPSFIGKAKRDVIRIAEENNLKIKINGNGYVKEQTPNPGNKYKSNQEIKVFLEPG	0.0894
HMINFSKNIISDTTSIKEAIEILNIISGRDNHILFVLNDKRQLIGTLSDGDVRRGMLASKTISQSVTEVM	-0.351
HMINIDESIDESLSEDDAVLDLLERASASFTKAQEALLEGDLGRYQTLIEQADRLVAKALELLDEKN	-0.457
HMINIQYSYNDGKETLHNLSPEVIAEKIMDDPNGYHIVWKQGMVGWVNANDIDDIAKLLRQKK	-0.0619
HMINKDNLIEEILKFINTKIADISSNNPLFDIVAKPYISKVVTNNVSKLDKALSLIADDKGMVDADGLLT	-0.292
HMINLDGIGEKISRLRKEQGVTIRELSEYTGYSVGFLSNLETGKNSPTVESLQRVAEALRTDIIEILTK	-0.312
HMINLNEVLANFQKSYPNLAGFKYDQGMDALVYEGNYIRLNGYMLSRINPTLFSMSPDDIFTYLKNGF	-2.53
HMINRMGRLVEALSHMIANTKPGARLPSEPELARQLGVSRATLREAMRTFEAQGMIHRRQGAGTFVVH	-0.402
HMINYSQKQLIAIQDELSKRFQALENESTKNNVTGFGVGLHYIDIDLIVNTPEKQKEFREKIMDSPAFRFN	-0.839
HMINYYELLKLDMNAAHEEINDAIKLESEKNTIPEDQIRTMKSIFFNTEFKKEYDQRLMNFLLT	-0.319
HMIPDAIDPDGRFKWRAGEAVVGFGRHAGEPLKKIAIENPEFLRWILKADFSTDVKKIASDALKGYFPEK	-0.23
HMIPDLPAVGVNVHKERRRQQLSLDALAAGSGVSKAMLSQIESGKVNPTVATMWKIAHALGVDFELLLKGE	-0.154
HMIPDPPALGSNLHRERRRQQLSLDALAAASGVSKAMLSQIEADKVNPTIATMWKIAHALNIDFETLLRGE	-0.283
HMIPENKRVLISLTYIYGIGKKISQDILEKANIDSSIKTSQLTDDDVARIRQLIENDYLVEGELRV	0.0489
HMIPLPEDVASMRERLALTPEKADELFGLEDGSFARYEHGEEKVPFVVFQLLWLLGKYPHLIGELR	-0.818
HMIPRGFSRYYILELLQKKPHTGKEIIDNAIKESGGRWNPSPGLIYPLLGRLLDENLIEETNDGKYK	-1.72
HMIPSLTITVNEHSRQITRGTSLYTLRDALYPDADVLVVNGHPADSDRHLEEGDAVVLIRRGA	-0.275
HMIQIQDIAFSEFLQELDKGNIVEVNIKGDLINGDLINGKKFKTVAPYDPNLVEKLSKQNVRINVEPIN	0.125

Sequence	soluble fraction (log2)
HMIQLKEHDVVRLRETIVENDEKIPAGTRGVVLSVYDGGRAFAVEVADDRAASAIITAFRDQLEVY	-0.136
HMIQNTGMMESGDSIRGMALDAGFPLLMVVGYRGWTRKGNTPDSAAVYTEPFLNAFRLNYYLVEHDE	0.309
HMIQVNKTQALIIEEMRDNPNITLLELQKTLSLGRTAIQNNVSSLRKRQIIKRVGSNKNGYWEVTDK	-1.95
HMIRQETYLLVRKAVGALPVQMRKIIELAMQGKKNAEIAAQLSISEGTVHTLKKTAYKKLRDRLQE	-2.22
HMIRQGTKQALLIEMLQRPEGASITEIVEATSWQAHTARGAISGALKKKLGLPITSEKHPERGTVYKL	-0.685
HMISAQEQALRNLKLSNGMTWKALAKALGITERSILSYVAAPGTKGYREMPAEVWHKLENISGH	0.165
HMISDAEWTIMKALWQSEDKKMTLKEIAEAVADSGWSYTTVRTMVGRLVEKEAIEADESHPRNFRYSAA	-1.23
HMISEGDIIKGTVIDVNEEEVILDLKYYAQGVIKAENLSNDPDFLAAGKISVGDEIEATVIKMDDGEGNIE	0.0355
HMISESIPAKDALLRLLNTAYQTRTNAAGEFYFNDVPPGKYILQASVNDVEIIRENISINEN	-0.249
HMISEWDAAYSYAKQYYEENGHLFVPKKYVTSEGAALGKWIWEQRDSYLGLSSYKISDKKIEMLEDIGMFW	-4.02
HMISINVIGEMISGSYGNTPFSRTYEKDIYEQMVKLSDDADQAQTVEEYNKILAEFSLLTTEDLK	-0.698
HMISKWGELVDLAVQLDIIQKSGSWFSMGDERIGQGANSVKDYLIANPDIAEKVEAEVRENLWKLN	-0.129
HMISKYLRIESDILSAIREGRLKPGDKLPGQSEMRRIYNVSAITVRKAFTDLINDGYLVGVRGSGTYVAKR	-0.703
HMISQATMEKMGLTNRERQLVDFIVRGASNQEISEKMFISINTVKIHVSNIFRKAGVRSRTELMDKYP	-3.49
HMISSKDIINDEDGARLGKIADVEIDVATGKILSVHVYRSFKLLHLFGNKDVVQIPWNKIMKIGSDVVIVE	-0.0123
HMISVENLSNREFEIFQLIGNGFSTKEMAKKLNLSIYTVESHKKNIKEKLKLKNSSDLSKYAIQWVIMQN	-0.503
HMITANNYFNEVERIGVETLPETLRKGHDLVVRSTNSGTNWSNYQNNESIRKVIDLYLQKLNEYVSTST	0.131
HMITGSIQPKNGKYYAVLNLYDHTGKRRPKWVSTGYTVKGNKKKAQEVLNELTRRYSAQLPPSK	-0.512
HMITLPDFVGKDVETVKAWAKENGITLIVNKVEDSAKKDTVISQTPTTYDYSKIMKGSSFTVNVAKE	-0.0122
HMITNLEPFKDFVRGFSGLHLEGVGQEKLAAALDERIRKTGSANERDYLQLIMEDVAERLKLINILT	0.0546
HMITPAARLRALKIRLSVDEVAQIVQRLVNGETVYQIGKPDTGGHAKATVGKINALRLAGQLHFL	-1.28
HMITTLLVENLQDVGMRLDHYLVYNLIKYSRSHIQSFIRSGDIRVNGKKVKTGYSLELKDLIHIEMP	-3.75
HMITVPKVINMSETQARQTLDALGLNVTLSATQVMNDKIPYGYVAAQSYSAGKEVPAGTTIELTMSIGL	-0.945
HMIVDYPSFVGKTKQELEKWAKENNIIIRYRQLSVTASDKVKAQLPATTTYKRIMKGSSIEVELEL	-0.776
HMIVIMKAKAEEEDVNRVIDTIQSLGLRTQLNLGAERMVVAVIGDISKIGEDNFFRIRAMKGVENTVFVSK	-0.396

From the domain aggregation screens of Martell et al. (2025)
